# Reference: PMC10799026, “Differences in regulation mechanisms of glutamine synthetases from methanogenic archaea unveiled by structural investigations” (Communications Biology, 2024)
# B1: MtGS (Methanothermococcus thermolithotrophicus DSM 2095) (protein)
# chain: MSTVEQVLEYVKSNNVKFMRFQFVDILGVPKNVAFPIKAGEKGIEELRDVLENGLYFDGSSIEGFVGINESDMMLKPDLSTFSVLPWRPSEKSVARVICDVYTTKGKPFEGDPRGCLKRVMEEFKKEFNGEYFVGPEPEFFLLKKDPHNPHKYIPADDGGYFDLEPMDEAPDIRRDIVFALENLGFHVEASHHEVAPGQHEVDFKFDDALKTADSVITFKTTIKTIAEQHGLKATFMPKPFFGMNGSGMHCHQSIWLNGEPSFYDENAPYQLSETCMNYVAGILKHAKAIVAITNPTVNSYKRLVPGYEAPVNIAWANSNRSAIIRVPAARGKGTRIEFRAPDPSCNPYLAFTVMLAAGLDGVKNKLDAPEPVERNIFAMSEAEKKELGIESVPANLKAALDELENNDVLKNALGKHIFESFLEIKNAEWDSFRTSVTDWETTAYLKI
# notes: native, purified anaerobically from M. thermolithotrophicus cells, no tag
# B2: MsGS (Methermicoccus shengliensis) (protein)
# chain: MGSKEDEIFRIVEEKNVRFVRLQFVDVQGIPKNVAIPVGQLEKALGPGIHFDGSSIEGFVRIEESDMVLRPDPDTFRVLPWSGNEGTAEARLICDIELPDGKPFMGCPRQVLKKNMEEAAKLGYVMNTGPEMEFFLFKRQDGMPTNIPQDRGGYFDLAPIDLAEEIKREIVLVLEEMGFEVEAAHHEVAFGQHEIDFKYDNALATADNVITLKYVAKTLALQHGLHATFMPKPIFGVNGSGMHTNTSLFKDGKNAFYDPDAPDQISDTLRYFVGGVLKHIRAITAITNPLVNSYKRLVPGYEAPVYITWSGPNRSSLIRVPAPRGNSTRIEIRSPDPSCNPYLAFAAILAAGLDGVKNKIEPPERVEKNIYKLTEEEREKLGIGMLPGTLKEAIECFKEDELLVSALGEHVSQSIINVAMADWDSYRTQVHQWELDRYLQTY
# notes: native, purified anaerobically from M. shengliensis cells, no tag
# Key:
# [1] = biological target: glutamine synthetase (GSI-α) from Methermicoccus shengliensis (Methermicoccus shengliensis); test: crystal structure; sitting drop, 20 °C, anaerobic; apo and ligand-bound (2OG/Mg2+, 2OG/Mg2+/ATP, Mg2+/ATP) crystal forms
# [2] = biological target: glutamine synthetase (GSI-α) from Methermicoccus shengliensis (Methermicoccus shengliensis); test: native gel or EMSA; high-resolution clear native PAGE (hrCN PAGE), 5-12% gradient gels, 40 mA for 1 h, 2 µg purified GS; size from a fit to standard proteins
# [3] = biological target: glutamine synthetase (GSI-α) from Methermicoccus shengliensis (Methermicoccus shengliensis); test: SEC; Superose 6 Increase 10/300 GL, anaerobic, 20 °C, 25 mM Tris/HCl pH 7.6, 10% glycerol, 2 mM DTT, 0.4 ml/min; 76 µg MtGS, 67.5 µg MsGS; size from a fit to standard proteins
# [4] = biological target: T1, MsGS (Methermicoccus shengliensis, UniProt A0A832VZP6); test: PK/LDH coupled assay, NADH oxidation at […] nm; type: biochemical; settings: read-out: % inhibition at 20 mM
# T1 construct: gene glnA; native, purified anaerobically from M. shengliensis cells, no tag
# T1 sequence (A0A832VZP6 1-442): B2 chain
# [5] = biological target: glutamine synthetase (GSI-α) from Methanothermococcus thermolithotrophicus (Methanothermococcus thermolithotrophicus); test: crystal structure; sitting drop, 20 °C, anaerobic; apo and ligand-bound (2OG/Mg2+, 2OG/Mg2+/ATP, Mg2+/ATP) crystal forms
# [6] = biological target: glutamine synthetase (GSI-α) from Methanothermococcus thermolithotrophicus (Methanothermococcus thermolithotrophicus); test: native gel or EMSA; high-resolution clear native PAGE (hrCN PAGE), 5-12% gradient gels, 40 mA for 1 h, 2 µg purified GS; size from a fit to standard proteins
# [7] = biological target: glutamine synthetase (GSI-α) from Methanothermococcus thermolithotrophicus (Methanothermococcus thermolithotrophicus); test: SEC; Superose 6 Increase 10/300 GL, anaerobic, 20 °C, 25 mM Tris/HCl pH 7.6, 10% glycerol, 2 mM DTT, 0.4 ml/min; 76 µg MtGS, 67.5 µg MsGS; size from a fit to standard proteins
# [8] = substrate: N; test: purified protein; settings: 3 mM ATP, 25 mM MgCl2, pH 7, 45 °C, Hill fit
# [9] = substrate: N[C@@H](CCC(=O)O)C(=O)O; test: purified protein; type: biochemical, Methanothermococcus thermolithotrophicus; settings: in presence of 2 mM 2OG (required activator), 20 mM NH4Cl, 3 mM ATP, 25 mM MgCl2, pH 7, 45 °C, Hill fit
# [10] = substrate: N[C@@H](CCC(=O)O)C(=O)O; test: purified protein; type: biochemical, Methermicoccus shengliensis; settings: 20 mM NH4Cl, 3 mM ATP, 25 mM MgCl2, pH 7, 45 °C, standard mix contains 2 mM 2OG (no effect on MsGS), Hill fit
# [11] = in presence of 2 mM 2OG (required activator), 50 mM glutamate
# [12] = 80 mM glutamate, standard mix contains 2 mM 2OG (no effect on MsGS)
molecule,measurement,setting,value
glutamine synthetase (GSI-α) from Methermicoccus shengliensis (enzyme),stoichiometry N,[1],12
same,stoichiometry N,[2],12
same,stoichiometry N,[3],12
NC(=O)CC[C@H](N)C(=O)O [glutamine],inhibition at 20000 µM,[4],97%
glutamine synthetase (GSI-α) from Methanothermococcus thermolithotrophicus (enzyme),stoichiometry N,[5],12
same,stoichiometry N,[6],12
same,stoichiometry N,[7],12
B1,Km,[8]; [11],0.14 ± 0.01 mM
same,Vmax,[8]; [11],3.27 µmol/min/mg
same,Km,[9],8.76 ± 0.87 mM
same,Vmax,[9],3.42 µmol/min/mg
B2,Km,[8]; [12],0.07 ± 0.01 mM
same,Vmax,[8]; [12],0.98 µmol/min/mg
same,Km,[10],32.57 ± 3.13 mM
same,Vmax,[10],1.4 µmol/min/mg
